Source: the RNAGym collection of RNA variant scans (doi:10.7554/elife.80360)

B1: CPEB3 Ribozyme (parent)
chain: GGGGGCCACAGCAGAAGCGUUCACGUCGCGGCCCCUGUCAGAUUCUGGUGAAUCUGCGAAUUCUGCUGU

Variants of: B1
Assay: self-cleavage, relative activity (ratio to wild type); higher = more cleavage; co-transcriptional

Variant | self-cleavage
A42C | 0.961
A40U U55C | 0.828
A40U U55G | 0.839
A40U U55A | 0.936
G41A G50A | 0.707
G41A G65U | 0.379
G41A G65C | 0.261
A42C G56U | 0.568
A42C G56C | 0.325
A40G C66A | 0.54
A40G C66U | 0.982
G41U G65U | 0.366
G41U G65A | 0.438
A40U U61G | 0.286
A40U A51G | 0.842
A40U A51U | 0.61
A40U A51C | 0.564
A42C C63G | 0.542
A42C C63A | 0.547
G41A A51U | 0.511
A40U U64A | 0.435

Variant | self-cleavage
A40U U64G | 0.598
G41U U53C | 0.364
G41U U53G | 0.604
G41C U53A | 0.463
G41C U53C | 0.283
G41U A60U | 0.374
G41U A60G | 0.612
A40G U44C | 0.485
A40G U44G | 0.843
G41C G68C | 0.902
G41C G68U | 0.933
G41C G68A | 0.927
A40U A60C | 0.235
A40U A60U | 0.41
G41C C45U | 0.501
G41C C45A | 0.34
G41C C45G | 0.38
G41A A59C | 0.358
A40C G50U | 0.55
G41C G65A | 0.426
G41C G65U | 0.327

Variant | self-cleavage
A40G U62C | 0.649
A40G C54U | 0.952
A40G C63U | 0.915
A40G C63G | 0.563
A40G C63A | 0.689
G41U C66A | 0.441
G41U C66G | 0.428
G41U U64C | 0.382
G41U U64A | 0.501
G41U U64G | 0.441
G41A U44G | 0.307
G41U U44A | 0.339
G41U U44G | 0.336
A40U U62C | 0.351
A40U U62G | 0.426
A40U U62A | 0.436
A42C G65A | 0.627
A42C G58C | 1.04
G41C A60C | 0.262
G41C A60U | 0.366
G41C A60G | 0.304

Variant | self-cleavage
G41C U61C | 0.241
G41C U61G | 0.345
A40U C66A | 0.397
A40U C66G | 0.325
A40U C66U | 0.729
A40C U69C | 0.965
A40C U69A | 0.865
G41U G58U | 0.939
G41U G58C | 0.94
G41U G58A | 0.935
A40U G56A | 0.818
A40G U61C | 0.48
A40G U61A | 0.863
A40G U61G | 0.823
G41U U55G | 0.324
A40U U49G | 0.816
A40U U49C | 0.757
A40U U49A | 0.922
A40G U64A | 0.759
G41A C54G | 0.861
G41A C54U | 0.961
